# Entries after “also recorded” stand apart in the source; their conditions may differ. Ends that are not written are not given here.
# What was measured:
# Type in all cases: physicochemical
# [1] = Transmission electron microscopy of aged peptides (Example 10); settings: for fibrilar supramolecular ultrastructures by electron microscopy: peptides derived from amyloid proteins, mild conditions
# Protocol: Transmission Electron Microscopy—A 10 μL sample of 8 mg/ml peptide solution in 10 mM Tris buffer, pH 7.2 aged for at least one day was placed on 400-mesh copper grids (SPI supplies, West Chester Pa.) covered by carbon-stabilized Formvar film. Following 1 minute, excess fluid was removed, and the grid was then negatively stained with 2% uranyl acetate in water for another two minutes. Samples were viewed in a JEOL 1200EX electron microscope operating at 80 kV.
# [2] = Congo Red staining and birefringence (Example 9)
# Protocol: Congo Red Staining and Birefringence—A 10 μL suspension of 8 mg/ml peptide solution in 10 mM Tris buffer, pH 7.2 aged for at least one day was allowed to dry overnight on a glass microscope slide. Staining was performed by the addition of a 10 μL suspension of saturated Congo Red (CR) and NaCl in 80% ethanol (v/v) solution as previously described [Puchtler (1966) Supra]. The solution was filtered via 0.45 μm filter. The slide was then dried for few hours. Birefringence was determined with a SZX-12 Stereoscope (Olympus, Hamburg, Germany) equipped with cross polarizers.
# [3] = Fourier transform infrared spectroscopy of aged peptides (Example 11); settings: for secondary structure by FT-IR (amide I): Calcitonin-derived peptides; for secondary structure by FT-IR: hIAPP peptide fragments, aged solutions from turbidity assay
# Protocol: Fourier Transform Infrared Spectroscopy—Infrared spectra were recorded using a Nicolet Nexus 470 FT-IR spectrometer with a DTGS detector. Samples of aged peptide solutions, taken from turbidity assay, were suspended on a CaF2 widows (Sigma)-plate and dried by vacuum. The peptide deposits were resuspended with […] and subsequently dried to form thin films. The resuspension procedure was repeated twice to ensure maximal hydrogen to deuterium exchange. The measurements were taken using a 4 cm^−1 resolution and 2000 scans averaging. The transmittance minima values were determined by the OMNIC analysis program (Nicolet).
# [4] = Kinetic aggregation assay, turbidity at 405 nm (Example 8)
# Protocol: Kinetic Aggregation Assay—freshly prepared peptide stock solutions were generated by dissolving the lyophilized form of the peptides in dimethyl sulfoxide (DMSO) at a concentration of 100 mg/ml. To avoid any pre-aggregation, fresh stock solutions were prepared for each experiment. […] Turbidity data were collected at 405 nm. Buffer solution containing the same amount of DMSO as the tested samples was used as blank, which was subtracted from the results. Turbidity was measured continuously at room temperature using THERMOmax ELISA plate reader (Molecular Devices, Sunnyvale Calif.).
# [5] = Congo red binding assay with polarization microscopy (Example 4)
# Protocol: Congo red (CR) staining combined with polarization microscopy was utilized to test amyloidogenicity of the peptides of the present invention. […] Invest. 31:232-8; Lansbury (1992) Biochemistry 31:6865-70]. […] Staining was effected by the addition of 1 mM CR in 10 mM Tris buffer pH 7.2 followed by a 1 minute incubation. To remove excess CR, slides were rinsed with double-distilled water and dried. Saturated CR solutions solubilized in 80% ethanol (v/v) were used for poorly aggregating peptides. In such cases, staining was effected without rinsing. Birefringence was determined using a WILD Makroskop m420 (×70) equipped with a polarizing stage.
# [6] = Negative staining electron microscopy of fibril formation (Example 5); settings: 2 mM peptide incubated overnight
# Protocol: Method—Peptide solutions (2 mM peptide in 10 mM Tris buffer pH 7.2), were incubated overnight at room temperature. Fibrils formation was assessed using 10 μl sample placed on 200-mesh copper grids, covered with carbon-stabilized formvar film (SPI Supplies, West Chester Pa.). Following 20-30 seconds of incubation, excess fluid was removed and the grids were negatively stained with 2% uranyl acetate in water. Samples were viewed in a JEOL 1200EX electron microscope operating at 80 kV.
# [7] = Kinetic aggregation assay (turbidity at 405 nm) of IAPP peptide fragment and alanine mutants; settings: 2 mM peptide, 10 mM Tris pH 7.2, 2% DMSO, room temperature
# Protocol: To study self-assembly of the IAPP peptide derived fragments, aggregation and insolubilization kinetics were monitored using turbidity measurements at 405 nm.
# Kinetic aggregation assay—Fresh peptide stock solutions were prepared by dissolving lyophilized form of the peptides in DMSO, a disaggregating solvent, at a concentration of 100 mM. To avoid any pre-aggregation, fresh stock solutions were prepared prior to each and every experiment. Peptide stock solutions were diluted into assay buffer and plated in 96-well plates as follows: 2 μl of peptides stock solutions were added to 98 μl of 10 mM Tris pH 7.2, resulting in a 2 mM final concentration of the peptide in the presence of 2% DMSO. Turbidity data was measured at 405 nm. A buffer solution including 2% DMSO was used as a blank. Turbidity was measured at room temperature over several time points.
# [8] = Aggregate mean particle size by dynamic light scattering; settings: 100 μM peptide, 1% DMSO, 10 mM Tris pH 7.2
# Protocol: Therefore, the average size of the aggregates, formed by the various peptides, was determined using dynamic light scattering (DLS) experiments.
# Method—Freshly prepared peptide stock solutions at a concentration of 10 mM were diluted in 10 mM Tris buffer pH 7.2 and further filtrated through a 0.2 μm filter to a final concentration of 100 μM peptide and 1% DMSO. Particle size measurement was conducted with a laser-powered ALV-NIBS/HPPS non-invasive backscattering instrument. Autocorrelation data was fitted using the ALV-NIBS/HPPS software to derive average apparent hydrodynamic diameters.
# [9] = Calcitonin-derived peptides, 0.02M NaCl, 0.01M Tris pH 7.2, aged 2 days
# [10] = Medin-derived peptides, aged 4 days
# [11] = hIAPP peptide fragments, 8 mg/ml aged at least one day
# [12] = hIAPP peptide fragments, 8 mg/ml, 8% DMSO, monitored two hours
# [13] = peptide solutions incubated for four days
substance,measurement,setting,value
SFNNG (also: EG modification),fibrilar supramolecular ultrastructures by electron microscopy,[1],filamentous structures were observed
NH2- FNKF-COOH (H-FNKF-OH),Congo Red birefringence,[2]; Calcitonin-derived peptides,lower but significant
same,structures by electron microscopy,[1]; [9],only amorphous aggregates could be found
same,secondary structure by FT-IR (amide I),[3],typical of a non-ordered structure
NH2-GSVQ -COOH (H-GSVQ-OH),Congo Red birefringence,[2]; Medin-derived peptides,unexpected high level of birefringence
same,structures by electron microscopy,[1]; [10],no fibrillar structures could be found
NH2-FGSVQ -COOH (H-FGSVQ-OH),Congo Red birefringence,[2]; Medin-derived peptides,no birefringence
same,structures by electron microscopy,[1]; [10],somewhat fibrillar and ordered structure could be seen
same,turbidity at 405 nm,[4]; Medin-derived peptides,gradual increase in turbidity
SFFSFL (also: EG modification),fibrilar supramolecular ultrastructures by electron microscopy,[1],filamentous structures were observed
SGIFTN (also: EG modification),fibrilar supramolecular ultrastructures by electron microscopy,[1],filamentous structures were observed
GTFQIN,fibrilar supramolecular ultrastructures by electron microscopy,[1],filamentous structures were observed
NH2-DFNK -COOH (H-DFNK-OH),Congo Red birefringence,[2]; Calcitonin-derived peptides,lower level of birefringence
same,structures by electron microscopy,[1]; [9],also formed fibrillar structures
same,secondary structure by FT-IR (amide I),[3],less typical of a β-sheet structure
FLVHS,Congo Red birefringence,[2]; [11],typical birefringence
same,structures by electron microscopy,[1]; [11],large broad ribbon-like fibrils
same,turbidity at 405 nm,[4]; [12],high turbidity
"I5A: isoleucine to alanine mutant of the hIAPP peptide fragment, SEQ ID NO: 5 (NFGAALSS)",Congo red binding and birefringence,[5]; [13],bound CR and exhibited rare but characteristic birefringence
same,fibril structures by electron microscopy,[6],"lower in comparison to that of wild type; also recorded: More distinct structures and longer fibrils, albeit less frequent"
same,kinetics of aggregation (turbidity at 405 nm),[7],reduced the kinetics of aggregation but did not abolish it completely
same,apparent hydrodynamic diameter of the structures formed,[8],Smaller structures
GLVFVS,fibrilar supramolecular ultrastructures by electron microscopy,[1],filamentous structures were observed
RDFLDR,fibrilar supramolecular ultrastructures by electron microscopy,[1],filamentous structures were observed
NH2-FGSV -COOH (H-FGSV-OH),Congo Red birefringence,[2]; Medin-derived peptides,no birefringence
same,structures by electron microscopy,[1]; [10],no fibrillar structures could be found
same,turbidity at 405 nm,[4]; Medin-derived peptides,gradual increase in turbidity
H-NAGSVQ-OH,Congo Red birefringence,[2]; Medin-derived peptides,some degree of birefringence could still be detected
same,structures by electron microscopy,[1]; [10],no clear fibrillar structures could be detected
same,turbidity at 405 nm,[4]; Medin-derived peptides,significantly lower turbidity
NFGAILSS,structures by electron microscopy,"[1]; hIAPP 22-29 and analogues, five days of incubation",well-ordered fibrils
same,turbidity at 405 nm,"[4]; hIAPP 22-29 and hydrophobic analogues, up to 24 hours",significant increase in turbidity
FLVHSS,Congo Red birefringence,[2]; [11],typical birefringence
same,structures by electron microscopy,[1]; [11],large broad ribbon-like fibrils
same,secondary structure by FT-IR,[3],major minimum at 1626
same,turbidity at 405 nm,[4]; [12],high turbidity
NFLVHSSNN,Congo Red birefringence,[2]; [11],weaker characteristic birefringence
same,structures by electron microscopy,[1]; [11],long thin coiling filaments
same,secondary structure by FT-IR,[3],large β-sheet content
same,turbidity at 405 nm,[4]; [12],very low turbidity
ERGFF,fibrilar supramolecular ultrastructures by electron microscopy,[1],filamentous structures were observed
RALDFA,fibrilar supramolecular ultrastructures by electron microscopy,[1],filamentous structures were observed
NH2-NFGSV -COOH (H-NFGSV-OH),Congo Red birefringence,[2]; Medin-derived peptides,very low degree of birefringence
same,structures by electron microscopy,[1]; [10],network of fibrous structures
same,turbidity at 405 nm,[4]; Medin-derived peptides,highest degree of aggregation within minutes of incubation
FLVH,Congo Red birefringence,[2]; [11],no birefringence
same,structures by electron microscopy,[1]; [11],amorphous aggregates
same,"amyloid fibril formation (EM, CR staining, FT-IR)",[1]; incubated for two months,no evidence for amyloid fibril formation was detected
same,secondary structure by FT-IR,[3],typical to random coil structure
same,turbidity at 405 nm,[4]; [12],almost no turbidity at all
NH2-DFN -COOH (H-Asp-Phe-Asn-OH),Congo Red birefringence,[2]; Calcitonin-derived peptides,lower but significant
same,structures by electron microscopy,[1]; [9],more ordered structures
same,secondary structure by FT-IR (amide I),[3],consistent with a mixture of β-sheet and random structures
FENKF,fibrilar supramolecular ultrastructures by electron microscopy,[1],filamentous structures were observed
TLIFGG (also: EG modification),fibrilar supramolecular ultrastructures by electron microscopy,[1],filamentous structures were observed
NH2-DFNKF-COOH (H-DFNKF-OH),Congo Red birefringence,[2]; Calcitonin-derived peptides,clear and strong
same,structures by electron microscopy,[1]; [9],clearly seen with high frequency
same,secondary structure by FT-IR (amide I),[3],consistent with anti-parallel β-sheet structure
SNFLN (also: EG modification),fibrilar supramolecular ultrastructures by electron microscopy,[1],filamentous structures were observed
LFNQTG,fibrilar supramolecular ultrastructures by electron microscopy,[1],filamentous structures were observed
LQNFTL,fibrilar supramolecular ultrastructures by electron microscopy,[1],filamentous structures were observed
NFLVH,Congo Red birefringence,[2]; [11],powerful smear of birefringence at the edges of the sample
same,structures by electron microscopy,[1]; [11],thin and short
same,secondary structure by FT-IR,[3],indicative of β-sheet
same,turbidity at 405 nm,[4]; [12],almost no turbidity at all
"wild type peptide: wild-type eight amino-acid hIAPP peptide fragment, NFGAIL motif followed by two serines, SEQ ID NO: 1 (NFGAILSS)",Congo red binding and birefringence,[5]; peptide solution incubated for 14 days,significant CR birefringence
same,Congo red binding and birefringence,[5]; [13],bound CR and exhibited the characteristic green/gold birefringence
same,fibril structures by electron microscopy,[6],tangled net-like structures
same,apparent hydrodynamic diameter of the structures formed,[8],very similar hydrodynamic diameters
"NFGSVQFV [published amyloidogenic octapeptide of Medin, reference compound]",Congo Red birefringence,[2]; Medin-derived peptides,significant birefringence
same,structures by electron microscopy,[1]; [10],Fibrillar structures were clearly seen
same,turbidity at 405 nm,[4]; Medin-derived peptides,too fast to be measured
NH2-NFGSVQ -COOH (H-NFGSVQ-OH),Congo Red birefringence,[2]; Medin-derived peptides,characteristic bright and strong green-gold birefringence
same,structures by electron microscopy,[1]; [10],Fibrillar structures were clearly seen
same,turbidity at 405 nm,[4]; Medin-derived peptides,gradual increase in turbidity
NFLVHSS,Congo Red birefringence,[2]; [11],typical birefringence
same,structures by electron microscopy,[1]; [11],large broad ribbon-like fibrils
same,secondary structure by FT-IR,[3],classical for an anti-parallel β-sheet structure
same,turbidity at 405 nm,[4]; [12],high turbidity

# From patent US8012929B2, “Peptides directed for diagnosis and treatment of amyloid-associated diseases” (Tel Aviv University Future Technology Development L.P., priority 2002, dated 2011)
